Measured values taken from paper PMC3536650.

Tests used:
Test in all cases: cross-linking; engineered disulfide bridge in purified EF1; overnight with 400 µM DTNB (oxidised), 10 mM DTT (reduced), 30 mM DTT (re-reduced); SDS-PAGE with non-oxidizing sample buffer, Coomassie; yield from the change of the γ-band, oxidized against reduced; immunoblots against α and γ
[1] = molecular target: E. coli F1-ATPase subunit α with αP280C, in the cysteine-free EF1 mutant GH54 (Escherichia coli) (UniProt P0ABB0)
[2] = molecular target: E. coli F1-ATPase subunit α with αP281C, in the cysteine-free EF1 mutant FH4 (Escherichia coli) (UniProt P0ABB0)
[3] = molecular target: E. coli F1-ATPase subunit α with αE284C, in the cysteine-free EF1 mutant GH19 (Escherichia coli) (UniProt P0ABB0)

## E. coli F1-ATPase subunit γ with γK109C, γA213C and γG282C, in the cysteine-free EF1 mutant GH54 (natural protein)
[1]
  cross-link yield: 90%

## E. coli F1-ATPase subunit γ with γK109C and γI279C, in the cysteine-free EF1 mutant FH4 (natural protein)
[2]
  cross-link yield: 85%

## E. coli F1-ATPase subunit γ with γK109C, γA213C and γL276C, in the cysteine-free EF1 mutant GH19 (natural protein)
[3]
  cross-link yield: > 95%
